The RNAGym collection of RNA variant scans (doi:10.1073/pnas.2313332121)
Variants at the floor of the assay were thinned out.

B1: TPR 5TU (parent)
chain: GGAUCUUCUCGAUCUAACAAAAAAGACAAAUCUGCCACAAAGCUUGAGAGCAUCUUCGGAUGCAGAGGCGGCAGCCUUCGGUGGCGCGAUAGCGCCAACGUUCUCAACUAUGACACGCAAAACGCGUGCUCCGUUGAAUGGAGUUUAUCAUG

Variants of: B1
Assay: polymerase ribozyme fitness, log enrichment relative to wild type (log ratio); higher = more active; in vitro selection for triplet polymerase activity
Method in brief: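 Libraries of mutants in each subunit of a heterodimeric triplet polymerase ribozyme were generated by PCR and transcribed. In triplicate, each went through one in vitro selection round: annealing with biotinylated primer, partner subunit and triplets; frozen incubation at −7 °C; gel excision of extended constructs; streptavidin-bead capture; RT-PCR. Fitness, taken from Illumina sequencing of input and output libraries, is the logarithm of a genotype's enrichment over wild-type enrichment, averaged across replicates with inverse-variance weights. The logarithm is base 2, and genotypes needed ≥10 input reads and ≥1 read per output to be kept.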

Compared with GGAUCUUCUCGAUCUAACAAAAAAGACAAAUCUGCCACAAAGCUUGAGAGCGUCUUCGGAUGCAGAGGCGGCAGCUUUCGGUGGCGCGAUAGGGCCAACGUUCUCAACUAUGACACGCAAAACGCGUGCUCCGUUGAAUGGAGUUUAUCAUG [A52G C76U C93G], GGAUCUUCUCGAUCUAACAAAAAAGACAAAUCUGCCACAAAGCUUGAGAGCGUCUUGGGAUGCAGAGGCGGCAGCCUUCGGUGGCGUGAUAGCGCCAACGUUCUCAACUAUGACACGCAAAACGCGUGCUCCGUUGAAUGGAGUUUAUCAUG [A52G C57G C87U] is higher in “polymerase ribozyme fitness (log ratio)” value: -2.91 for the first, -1.27 for the second.

First: GGAUCUUCUCGAUCUAACAAAAAAGACAAAUCUGCCACAAAGCUUGAGAGCGUCUUCGGAUGCAGAGGCGGCAGCCUUCGGUGGCGCGAUAGCGCCAACGUUCUCAACUAUGACACGCAAAACGCGUGCUCCGUUGAAUGGAGUUUAUCGUG [A52G A150G]
Second: GGAUCUUCUCGAUCUAACAAAAAAGACAAAUCUGCCACAAAGCUUGAGAGCGUCUUCGGAUGCAGAGGCGGCAGCCUUCGGUGGAGCGAUAGCGCCAACGUUCUCAACUAUGACACGCAAAACGCGUGCUCCGUUGAAUUGAGUUUAUCAUG [A52G C85A G140U]
The “polymerase ribozyme fitness (log ratio)” value of the first is higher: -2.55 for the first, ≤ -4.2 for the second.

First: GGAUCUUCUCGAUCUAACAAAAAAGACAAAUCUGCCACAAAGCUUGAGAGCGUCUUAGGAUGCAGAGGCGGCAGCCUUCGGUGGCGCGAUAUCGCCAACGUUCUCAACUAUGACACGCAAAACGCGUGCUCCGUUGAAUGGAGUUUAUCAUG [A52G C57A G92U]
Second: GGAUCUUCUCGAUCUAACAAAAAAGACAAAUCUGCCACAAAGCUUGAGAGCGUCUUCGGAUGUAGAGGCGGCAGCCUUCGGUGGCGCGAUAGUGCCAACGUUCUCAACUAUGACACGCAAAACGCGUGCUCCGUUGAAUGGAGUUUAUCAUG [A52G C63U C93U]
The “polymerase ribozyme fitness (log ratio)” value of the first is higher: -0.753 for the first, -1.7 for the second.

Going from GGAUCUUCUCGAUCUAACAAAAAAGACAAAUCUGCCACAAAGCUUGAGAGCGUCUUCGGAUGCAGAGGCGGCAGCCUUCGGUGGUUCGAUAGCGCCAACGUUCUCAACUAUGACACGGAAAACGCGUGCUCCGUUGAAUGGAGCUUAUGAUG [A52G C85U G86U C118G U144C C149G] to GGAUCUUCUCGAUCUAACAAAAAAGACAAAUCUGCCACAAAGCUUGAGAGCGUCUUGGGAUGCAGAGGCGGCUGCCUUCGGUGACGCGAUAGCGCCAACGUUCUCAACUAUGACACGCAAAACGCGUGCUCCGUUGAAUGGAGUUUAUCAUG [A52G C57G A73U G84A], the “polymerase ribozyme fitness (log ratio)” value rises from ≤ -4.2 to -3.44.

Compared with GGAUCUUCUCGAUCUAACAAAAAAGACAAAUCUGCCACAAAGCUUGAGAGCGUCUUCGGAUGCAGAGGCGGCAGACUUCGGUGUCGCGAUAGCGCCAACGUUCUCAACUUUGACACGCAAAACGCGUGCUCCGUUGAAUGGAGUUUAUCAUG [A52G C75A G84U A110U], GGAUCUUCUCGAUCUAACAAAAAAGACAAAUCUGCCACAAAGCUUGAGAGCGUCUUCGGAUGUAGAGGCGGCAGCCUUCGGUGGCGCGAUAGUGCCAACGUUCUCAACUAUGACACGCAAAACGCGUGCUCCGUUGAAUGGAGUGUAUUAUG [A52G C63U C93U U145G C149U] is higher in “polymerase ribozyme fitness (log ratio)” value: ≤ -4.2 for the first, -4.11 for the second.

GGAUCUUCUCGAUCUAACAAAAAAGACAAAUCUGCCACAAAGCUUGAGAGCGUCUUAGGAUGCAGAGGCGGCAGCCUUCGGUGGCGCGAUAGCUCCAACGUUCUCAACUAUGACACUCAACACGCGUGCUGCGUUGAAUGGAGUUUAUCAUG [A52G C57A G94U G117U A121C C131G] and GGAUCUUCUCGAUCUAACAAAAAAGACAAAUCUGCCACAAAGCUUGAGAGCGUCUUCGGAUGCAGAGGCGGCAGACUUCGGAGGCGCGAUAGCGACAACGUUCUCAACUAUGACACGCAAAACGCGUGCUCCGUUGAAUGGAGUUUAUCAUG [A52G C75A U82A C95A] cannot be ordered by “polymerase ribozyme fitness (log ratio)” value: ≤ -4.2 for the first, ≤ -4.2 for the second.

Compared with GGAUCUUCUCGAUCUAACAAAAAAGACAAAUCUGCCACAAAGCUUGAGAGCGUCUUCGGAUGCAGAGGCGGCAGCUUUCGGUGGGGCGAUAGCGCCAACGUUCUCAACUAUGACACGCAAAAAGCGUGCUCCGUUGAAUGGAGGUUAUCAUG [A52G C76U C85G C123A U144G], GGAUCUUCUCGAUCUAACAAAAAAGACAAAUCUGCCACAAAGCUUGAGAGCGUGUUCGGAUGCAGACGCGGCAGCCUUCGAUGGCGCGAUAGCGGCAACGUUCUCAACUAUGACACGCAAAACGCGUGCUCCGUUGAAUGGAGUUUAUCAUG [A52G C54G G67C G81A C95G] is lower in “polymerase ribozyme fitness (log ratio)” value: -0.879 for the first, -3.86 for the second.

Going from GGAUCUUCUCGAUCUAACAAAAAAGACAAAUCUGCCACAAAGCUUGAGAGCGUCUUAGGAUGCAGAGGCGGCAGCCUUCGGUUGCGCGAUGGCGACAACGUUCUCAACUAUGACACGCAAAACGCGUGCUCCGUUGAAUGGAGUUUAUCAUG [A52G C57A G83U A91G C95A] to GGAUCUUCUCGAUCUAACAAAAAAGACAAAUCUGCCACAAAGCUUGAGAGCGUCUUCGGAUGCAGAGGAGGCAGCCUUCGGUGGCGCGAUAGCGCCAACGUUCUCAACUAUGACACGCAAAACGCGUGCUCCGUUGAAUGGAGUUUAUCAUG [A52G C69A], the “polymerase ribozyme fitness (log ratio)” value rises from -4.15 to -3.71.

Going from GGAUCUUCUCGAUCUAACAAAAAAGACAAAUCUGCCACAAAGCUUGAGAGCGUAUUCGGAUGCAGAGGCGGCAGCCUUCGGUGGCGCGAUAGCGCCAACGUUCUCAACUAUGACACGCAAAACGCGUGCUCCGUUGAAUGGAGUUUAUCAUG [A52G C54A] to GGAUCUUCUCGAUCUAACAAAAAAGACAAAUCUGCCACAAAGCUUGAGAGCGUCUUCGGAUGCAGAGGCGGCAGCCUUUGGUGGCGCGAUAACGCCAACGUUCUCAACUAUGACAGGCAAAACGCGUGCUCCGUUGAAUGGAGUUUAUCAUG [A52G C79U G92A C116G], the “polymerase ribozyme fitness (log ratio)” value falls from -0.998 to ≤ -4.2.

With GGAUCUUCUCGAUCUAACAAAAAAGACAAAUCUGCCACAAAGCUUGAGAGCGUCUUCGGAUGCAGAGGCGGCAGCCUUCGGUGGCGUGAUAGUGCCAACGUUCUCAACUAUGACACGCAAAACGCGUGCUACGUUAAAUGGACUGGAUCAUG [A52G C87U C93U C131A G136A G143C U145G U146G] the “polymerase ribozyme fitness (log ratio)” value was ≤ -4.2.
